Consider one substance from patent US20160282364A1, “ASSAY FOR INSULIN-DEGRADING ENZYME (IDE) INHIBITORS” (PRESIDENT AND FELLOWS OF HARVARD COLLEGE, priority 2013, published 2016).

For this test, the target named is IDE (UniProt P14735). Nature of the test: enzyme inhibition (double inhibitor plot); 1x IC50.

In the case of Bacitracin, the IC50 is 10 µM.

As a reminder, the IC50 is the concentration that inhibits the measured activity by half. Low readings indicate inhibition by little substance, high ones a need for much substance.
